B1: T-cell surface antigen CD2 (Homo sapiens), P06729 (parent)
chain: MSFPCKFVASFLLIFNVSSKGAVSKEITNALETWGALGQDINLDIPSFQMSDDIDDIKWEKTSDKKKIAQFRKEKETFKEKDTYKLFKNGTLKIKHLKTDDQDIYKVSIYDTKGKNVLEKIFDLKIQERVSKPKISWTCINTTLTCEVMNGTDPELNLYQDGKHLKLSQRVITHKWTTSLSAKFKCTAGNKVSKESSVEPVSCPEKGLDIYLIIGICGGGSLLMVFVALLVFYITKRKKQRSRRNDEELETRAHRVATEERGRKPHQIPASTPQNPATSQHPPPPPGHRSQAPSHRPPPPGHRVQHQPQKRPPAPSGTQVHQQKGPPLPRPRVQPKPPHGAAENSLSPSSN
partner: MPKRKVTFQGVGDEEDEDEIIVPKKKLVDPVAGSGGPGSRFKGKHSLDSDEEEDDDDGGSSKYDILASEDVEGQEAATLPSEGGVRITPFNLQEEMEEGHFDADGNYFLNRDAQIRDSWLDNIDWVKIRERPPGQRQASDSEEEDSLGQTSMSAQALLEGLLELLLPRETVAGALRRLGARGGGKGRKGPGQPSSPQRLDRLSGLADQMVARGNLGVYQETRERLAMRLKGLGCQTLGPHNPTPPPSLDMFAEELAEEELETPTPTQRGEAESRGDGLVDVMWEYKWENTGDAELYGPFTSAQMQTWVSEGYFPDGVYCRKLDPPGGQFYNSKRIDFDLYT

Variants of: B1
Conditions: with cd2b2_human CD2BP2, O95400

Row | effect of a mutation on the interaction | Variant
1 | decreasing interaction strength | MSFPCKFVASFLLIFNVSSKGAVSKEITNALETWGALGQDINLDIPSFQMSDDIDDIKWEKTSDKKKIAQFRKEKETFKEKDTYKLFKNGTLKIKHLKTDDQDIYKVSIYDTKGKNVLEKIFDLKIQERVSKPKISWTCINTTLTCEVMNGTDPELNLYQDGKHLKLSQRVITHKWTTSLSAKFKCTAGNKVSKESSVEPVSCPEKGLDIYLIIGICGGGSLLMVFVALLVFYITKRKKQRSRRNDEELETRAHRVATEERGRKPHQIPASTPQNPATSQHPPPPPGHRSQAPSHRPPPFGHRVQHQPQKRPPAPSGTQVHQQKGPPLPRPRVQPKPPHGAAENSLSPSSN [P300F]
2 | disrupting interaction strength | MSFPCKFVASFLLIFNVSSKGAVSKEITNALETWGALGQDINLDIPSFQMSDDIDDIKWEKTSDKKKIAQFRKEKETFKEKDTYKLFKNGTLKIKHLKTDDQDIYKVSIYDTKGKNVLEKIFDLKIQERVSKPKISWTCINTTLTCEVMNGTDPELNLYQDGKHLKLSQRVITHKWTTSLSAKFKCTAGNKVSKESSVEPVSCPEKGLDIYLIIGICGGGSLLMVFVALLVFYITKRKKQRSRRNDEELETRAHRVATEERGRKPHQIPASTPQNPATSQHPPPPPGHRSQAPSHRPPPDGHRVQHQPQKRPPAPSGTQVHQQKGPPLPRPRVQPKPPHGAAENSLSPSSN [P300D]
3 | disrupting interaction strength | MSFPCKFVASFLLIFNVSSKGAVSKEITNALETWGALGQDINLDIPSFQMSDDIDDIKWEKTSDKKKIAQFRKEKETFKEKDTYKLFKNGTLKIKHLKTDDQDIYKVSIYDTKGKNVLEKIFDLKIQERVSKPKISWTCINTTLTCEVMNGTDPELNLYQDGKHLKLSQRVITHKWTTSLSAKFKCTAGNKVSKESSVEPVSCPEKGLDIYLIIGICGGGSLLMVFVALLVFYITKRKKQRSRRNDEELETRAHRVATEERGRKPHQIPASTPQNPATSQHPPPPPGHRSQAPSHRPPPTGHRVQHQPQKRPPAPSGTQVHQQKGPPLPRPRVQPKPPHGAAENSLSPSSN [P300T]
4 | decreasing interaction strength | MSFPCKFVASFLLIFNVSSKGAVSKEITNALETWGALGQDINLDIPSFQMSDDIDDIKWEKTSDKKKIAQFRKEKETFKEKDTYKLFKNGTLKIKHLKTDDQDIYKVSIYDTKGKNVLEKIFDLKIQERVSKPKISWTCINTTLTCEVMNGTDPELNLYQDGKHLKLSQRVITHKWTTSLSAKFKCTAGNKVSKESSVEPVSCPEKGLDIYLIIGICGGGSLLMVFVALLVFYITKRKKQRSRRNDEELETRAHRVATEERGRKPHQIPASTPQNPATSQHPPPPPGHRSQAPSHRPPPWGHRVQHQPQKRPPAPSGTQVHQQKGPPLPRPRVQPKPPHGAAENSLSPSSN [P300W]
5 | decreasing interaction strength | MSFPCKFVASFLLIFNVSSKGAVSKEITNALETWGALGQDINLDIPSFQMSDDIDDIKWEKTSDKKKIAQFRKEKETFKEKDTYKLFKNGTLKIKHLKTDDQDIYKVSIYDTKGKNVLEKIFDLKIQERVSKPKISWTCINTTLTCEVMNGTDPELNLYQDGKHLKLSQRVITHKWTTSLSAKFKCTAGNKVSKESSVEPVSCPEKGLDIYLIIGICGGGSLLMVFVALLVFYITKRKKQRSRRNDEELETRAHRVATEERGRKPHQIPASTPQNPATSQHPPPPPGHRSQAPSHRPPPRGHRVQHQPQKRPPAPSGTQVHQQKGPPLPRPRVQPKPPHGAAENSLSPSSN [P300R]
6 | decreasing interaction strength | MSFPCKFVASFLLIFNVSSKGAVSKEITNALETWGALGQDINLDIPSFQMSDDIDDIKWEKTSDKKKIAQFRKEKETFKEKDTYKLFKNGTLKIKHLKTDDQDIYKVSIYDTKGKNVLEKIFDLKIQERVSKPKISWTCINTTLTCEVMNGTDPELNLYQDGKHLKLSQRVITHKWTTSLSAKFKCTAGNKVSKESSVEPVSCPEKGLDIYLIIGICGGGSLLMVFVALLVFYITKRKKQRSRRNDEELETRAHRVATEERGRKPHQIPASTPQNPATSQHPPPPPGHRSQAPSHRPPPNGHRVQHQPQKRPPAPSGTQVHQQKGPPLPRPRVQPKPPHGAAENSLSPSSN [P300N]
7 | disrupting interaction strength | MSFPCKFVASFLLIFNVSSKGAVSKEITNALETWGALGQDINLDIPSFQMSDDIDDIKWEKTSDKKKIAQFRKEKETFKEKDTYKLFKNGTLKIKHLKTDDQDIYKVSIYDTKGKNVLEKIFDLKIQERVSKPKISWTCINTTLTCEVMNGTDPELNLYQDGKHLKLSQRVITHKWTTSLSAKFKCTAGNKVSKESSVEPVSCPEKGLDIYLIIGICGGGSLLMVFVALLVFYITKRKKQRSRRNDEELETRAHRVATEERGRKPHQIPASTPQNPATSQHPPPPPGHRSQAPSHRPPPSGHRVQHQPQKRPPAPSGTQVHQQKGPPLPRPRVQPKPPHGAAENSLSPSSN [P300S]
8 | decreasing interaction strength | MSFPCKFVASFLLIFNVSSKGAVSKEITNALETWGALGQDINLDIPSFQMSDDIDDIKWEKTSDKKKIAQFRKEKETFKEKDTYKLFKNGTLKIKHLKTDDQDIYKVSIYDTKGKNVLEKIFDLKIQERVSKPKISWTCINTTLTCEVMNGTDPELNLYQDGKHLKLSQRVITHKWTTSLSAKFKCTAGNKVSKESSVEPVSCPEKGLDIYLIIGICGGGSLLMVFVALLVFYITKRKKQRSRRNDEELETRAHRVATEERGRKPHQIPASTPQNPATSQHPPPPPGHRSQAPSHRPPPMGHRVQHQPQKRPPAPSGTQVHQQKGPPLPRPRVQPKPPHGAAENSLSPSSN [P300M]
9 | disrupting interaction strength | MSFPCKFVASFLLIFNVSSKGAVSKEITNALETWGALGQDINLDIPSFQMSDDIDDIKWEKTSDKKKIAQFRKEKETFKEKDTYKLFKNGTLKIKHLKTDDQDIYKVSIYDTKGKNVLEKIFDLKIQERVSKPKISWTCINTTLTCEVMNGTDPELNLYQDGKHLKLSQRVITHKWTTSLSAKFKCTAGNKVSKESSVEPVSCPEKGLDIYLIIGICGGGSLLMVFVALLVFYITKRKKQRSRRNDEELETRAHRVATEERGRKPHQIPASTPQNPATSQHPPPPPGHRSQAPSHRPPPEGHRVQHQPQKRPPAPSGTQVHQQKGPPLPRPRVQPKPPHGAAENSLSPSSN [P300E]
10 | decreasing interaction strength | MSFPCKFVASFLLIFNVSSKGAVSKEITNALETWGALGQDINLDIPSFQMSDDIDDIKWEKTSDKKKIAQFRKEKETFKEKDTYKLFKNGTLKIKHLKTDDQDIYKVSIYDTKGKNVLEKIFDLKIQERVSKPKISWTCINTTLTCEVMNGTDPELNLYQDGKHLKLSQRVITHKWTTSLSAKFKCTAGNKVSKESSVEPVSCPEKGLDIYLIIGICGGGSLLMVFVALLVFYITKRKKQRSRRNDEELETRAHRVATEERGRKPHQIPASTPQNPATSQHPPPPPGHRSQAPSHRPPPKGHRVQHQPQKRPPAPSGTQVHQQKGPPLPRPRVQPKPPHGAAENSLSPSSN [P300K]
11 | decreasing interaction strength | MSFPCKFVASFLLIFNVSSKGAVSKEITNALETWGALGQDINLDIPSFQMSDDIDDIKWEKTSDKKKIAQFRKEKETFKEKDTYKLFKNGTLKIKHLKTDDQDIYKVSIYDTKGKNVLEKIFDLKIQERVSKPKISWTCINTTLTCEVMNGTDPELNLYQDGKHLKLSQRVITHKWTTSLSAKFKCTAGNKVSKESSVEPVSCPEKGLDIYLIIGICGGGSLLMVFVALLVFYITKRKKQRSRRNDEELETRAHRVATEERGRKPHQIPASTPQNPATSQHPPPPPGHRSQAPSHRPPPIGHRVQHQPQKRPPAPSGTQVHQQKGPPLPRPRVQPKPPHGAAENSLSPSSN [P300I]
12 | decreasing interaction strength | MSFPCKFVASFLLIFNVSSKGAVSKEITNALETWGALGQDINLDIPSFQMSDDIDDIKWEKTSDKKKIAQFRKEKETFKEKDTYKLFKNGTLKIKHLKTDDQDIYKVSIYDTKGKNVLEKIFDLKIQERVSKPKISWTCINTTLTCEVMNGTDPELNLYQDGKHLKLSQRVITHKWTTSLSAKFKCTAGNKVSKESSVEPVSCPEKGLDIYLIIGICGGGSLLMVFVALLVFYITKRKKQRSRRNDEELETRAHRVATEERGRKPHQIPASTPQNPATSQHPPPPPGHRSQAPSHRPPPLGHRVQHQPQKRPPAPSGTQVHQQKGPPLPRPRVQPKPPHGAAENSLSPSSN [P300L]
13 | decreasing interaction strength | MSFPCKFVASFLLIFNVSSKGAVSKEITNALETWGALGQDINLDIPSFQMSDDIDDIKWEKTSDKKKIAQFRKEKETFKEKDTYKLFKNGTLKIKHLKTDDQDIYKVSIYDTKGKNVLEKIFDLKIQERVSKPKISWTCINTTLTCEVMNGTDPELNLYQDGKHLKLSQRVITHKWTTSLSAKFKCTAGNKVSKESSVEPVSCPEKGLDIYLIIGICGGGSLLMVFVALLVFYITKRKKQRSRRNDEELETRAHRVATEERGRKPHQIPASTPQNPATSQHPPPPPGHRSQAPSHRPPPHGHRVQHQPQKRPPAPSGTQVHQQKGPPLPRPRVQPKPPHGAAENSLSPSSN [P300H]
14 | decreasing interaction strength | MSFPCKFVASFLLIFNVSSKGAVSKEITNALETWGALGQDINLDIPSFQMSDDIDDIKWEKTSDKKKIAQFRKEKETFKEKDTYKLFKNGTLKIKHLKTDDQDIYKVSIYDTKGKNVLEKIFDLKIQERVSKPKISWTCINTTLTCEVMNGTDPELNLYQDGKHLKLSQRVITHKWTTSLSAKFKCTAGNKVSKESSVEPVSCPEKGLDIYLIIGICGGGSLLMVFVALLVFYITKRKKQRSRRNDEELETRAHRVATEERGRKPHQIPASTPQNPATSQHPPPPPGHRSQAPSHRPPPQGHRVQHQPQKRPPAPSGTQVHQQKGPPLPRPRVQPKPPHGAAENSLSPSSN [P300Q]
15 | decreasing interaction strength | MSFPCKFVASFLLIFNVSSKGAVSKEITNALETWGALGQDINLDIPSFQMSDDIDDIKWEKTSDKKKIAQFRKEKETFKEKDTYKLFKNGTLKIKHLKTDDQDIYKVSIYDTKGKNVLEKIFDLKIQERVSKPKISWTCINTTLTCEVMNGTDPELNLYQDGKHLKLSQRVITHKWTTSLSAKFKCTAGNKVSKESSVEPVSCPEKGLDIYLIIGICGGGSLLMVFVALLVFYITKRKKQRSRRNDEELETRAHRVATEERGRKPHQIPASTPQNPATSQHPPPPPGHRSQAPSHRPPPYGHRVQHQPQKRPPAPSGTQVHQQKGPPLPRPRVQPKPPHGAAENSLSPSSN [P300Y]
16 | disrupting interaction strength | MSFPCKFVASFLLIFNVSSKGAVSKEITNALETWGALGQDINLDIPSFQMSDDIDDIKWEKTSDKKKIAQFRKEKETFKEKDTYKLFKNGTLKIKHLKTDDQDIYKVSIYDTKGKNVLEKIFDLKIQERVSKPKISWTCINTTLTCEVMNGTDPELNLYQDGKHLKLSQRVITHKWTTSLSAKFKCTAGNKVSKESSVEPVSCPEKGLDIYLIIGICGGGSLLMVFVALLVFYITKRKKQRSRRNDEELETRAHRVATEERGRKPHQIPASTPQNPATSQHPPPPPGHRSQAPSHRPPPVGHRVQHQPQKRPPAPSGTQVHQQKGPPLPRPRVQPKPPHGAAENSLSPSSN [P300V]

Source: IntAct's records for PubMed 15105431
